Experiments:
[1] = target: CD32b(Y163) (UniProt P31994); assay: SPR
[2] = target: FcRn (human) (UniProt P55899); assay: SPR; pH 6.0
FcRn (human), sequence (P55899 24-297): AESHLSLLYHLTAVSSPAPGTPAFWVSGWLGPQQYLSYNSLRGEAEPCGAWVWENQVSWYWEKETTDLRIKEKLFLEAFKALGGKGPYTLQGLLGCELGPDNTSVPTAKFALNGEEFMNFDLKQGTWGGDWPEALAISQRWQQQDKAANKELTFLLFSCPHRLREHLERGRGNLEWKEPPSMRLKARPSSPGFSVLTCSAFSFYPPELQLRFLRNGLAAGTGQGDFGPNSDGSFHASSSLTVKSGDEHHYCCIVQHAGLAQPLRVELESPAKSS

CD32b(Y163), sequence (P31994 43-217): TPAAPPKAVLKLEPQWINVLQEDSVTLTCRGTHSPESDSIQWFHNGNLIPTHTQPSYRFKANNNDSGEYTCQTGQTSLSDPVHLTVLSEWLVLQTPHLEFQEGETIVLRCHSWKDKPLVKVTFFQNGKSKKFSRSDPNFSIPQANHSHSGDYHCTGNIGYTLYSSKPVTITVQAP

Kd [1]: 1.7 µM
Kd [2]: 3.7 µM
Substance: Herceptin WT
